Test results published in patent US12551573B2, “Compositions and methods for the targeting of PCSK9” (Scribe Therapeutics Inc., priority 2022, dated 2026).

Legend:
human PCSK9 locus [1] = assay: Secreted PCSK9 levels in HepG2 cells transfected with CasX 491 mRNA and gRNA; format: cell-based; details: CasX 491 mRNA + v1 gRNAs, spacers 6.7 and 6.8, 28 hours
Description: (§1) Editing at the PCSK9 locus and consequential effects on secreted PCSK9 levels were assessed for conditions using CasX 491 mRNA co-delivered with a PCSK9-targeting gRNA with scaffold variant 174 compared to conditions where a PCSK9-targeting gRNA with scaffold variant 316 was used. 100 ng of in vitro transcribed mRNA coding for CasX 491 with a P2A and mScarlet fluorescent protein was transfected into HepG2 cells with version 1 (v1) of gRNAs 174-6.7, 174-6.8, 316-6.7, and 316-6.8 (see Table 26) using Lipofectamine™. After a media change, the following were harvested at 28 hours post-transfection: 1) transfected cells were harvested for editing assessment at the PCSK9 locus by NGS (next generation sequencing); and 2) media supernatant was harvested to measure secreted PCSK9 protein levels by ELISA. For editing analysis by NGS, amplicons were amplified from 200 ng of extracted gDNA with a set of primers targeting the PCSK9 locus and processed by NGS (described below). Secreted PCSK9 levels in the media supernatant were also analyzed using a fluorescence resonance energy transfer-based immunoassay from CISBio following the manufacturer's instructions. […]
(§2) V1 through v6 variants of chemically-modified PCSK9-targeting gRNAs (Table 26) were assessed for their effects on editing potency and consequential effects on secreted PCSK9 levels in vitro. […]

6.7/6.8 target dsDNA [2] = assay: In vitro cleavage assay of CasX 491 RNPs: competent (active) fraction; format: biochemical; details: spacer 6.7 or 6.8, v1; equimolar RNP and DNA target
Description: (§3) Double-stranded DNA (dsDNA) targets were formed by mixing the oligos in a 1:1 ratio in 1× cleavage buffer (20 mM Tris HCl PH 7.5, 150 mM NaCl, 1 mM TCEP, 5% glycerol, 10 mM MgCl2), following by heating to 95° C. for 10 minutes, and then allowing the solution to cool to room temperature. CasX ribonucleoproteins (RNPs) were reconstituted with CasX 491 and the indicated gRNAs at a final concentration of 1 μM with 1.2-fold excess of the indicated gRNA in 1x cleavage buffer. RNPs were allowed to form at 37° C. for 10 minutes.
To determine the competent fraction formed by each gRNA, cleavage reactions were prepared with final RNP concentrations of 100 nM and final target concentrations of 100 nM. Reactions were carried out at 37° C. and initiated by the addition of the labeled target substrate (Table 27). Aliquots were taken at 0.5, 1, 2, 5, 10, and 30 minutes and quenched by adding an equal volume of 95% formamide with 25 mM EDTA. Samples were denatured by heating at 95° C. for 10 minutes and resolved on a 10% urea-PAGE gel. Gels were imaged and quantified as above. […] The plateau of each fit was determined and reported as the active fraction for each RNP in Table 30.

6.7/6.8 target dsDNA [3] = assay: In vitro cleavage assay of CasX 491 RNPs: cleavage rate (kcleave); format: biochemical; details: CasX RNP, 20-fold excess RNP
Description: as §3
The effects of various structural and chemical modifications to the gRNA scaffold on the cleavage rate of CasX 491 RNPs were determined. Cleavage reactions were prepared with final RNP concentrations of 200 nM and final target concentrations of 10 nM, and reactions were carried out at 16° C. and initiated by the addition of the labeled target DNA substrate (Table 27). Aliquots of reactions were taken at 0.25, 0.5, 1, 2, 5, and 10 minutes and quenched by adding an equal volume of 95% formamide with 20 mM EDTA. Samples were denatured at 95° C. for 10 minutes and resolved on a 10% urea-PAGE gel. Gels were imaged on a Typhoon™ laser-scanner platform and quantified using ImageQuant™ TL 8.2 image analysis software (Cytiva™). The apparent first-order rate constant of non-target strand cleavage (kcleave−) was determined for each CasX:gRNA combination.

human B2M locus = assay: Editing (indel rate by NGS) at the B2M locus in HepG2 cells treated with LNPs; format: cell-based; details: LNPs with CasX 491 mRNA + gRNA spacer 7.9 (v1), highest dose of 250 ng
Description: ˜50,000 HepG2 cells, cultured in DMEM/F-12 media containing 10% FBS and 1% PenStrep, were seeded per well in a 96-well plate. The next day, seeded cells were treated with varying concentrations of LNPs, which were prepared in six 2-fold serial dilutions starting at 250 ng. These LNPs were formulated to encapsulate CasX 491 mRNA and a B2M-targeting gRNA incorporating either scaffold variant 174 or 316 with spacer 7.9 (v1; see Table 26). […] Briefly, for editing assessment, amplicons were amplified from 200 ng of extracted gDNA with primers targeting the human B2M locus and processed by NGS using similar methods as described in Example 7.

human PCSK9 locus [4] = assay: Editing (indel rate by NGS) at the PCSK9 locus in HepG2 cells transfected with CasX 491 mRNA and gRNA; format: cell-based; details: CasX 491 mRNA + v1 gRNAs, spacers 6.7 and 6.8, 28 hours
Description: as §1, §2

B2M locus = assay: B2M knockout (HLA flow cytometry) in HEK293 cells transduced with AAV; format: cell-based, human; details: spacer 7.37, MOI 1E4, 3E3, 1E3 vg/cell, 5 days

B1: scaffold 316: chimeric gRNA scaffold, SEQ ID NO: 1746 (nucleic acid)
guide: ACUGGCGCUUCUAUCUGAUUACUCUGAGCGCCAUCACCAGCGACUAUGUCGUAGUGGGUAAAGCUCCCUCUUCGGAGGGAGCAUCAGAG
modifications: listed as RNA, chemistry not fully specified
With B1 the “reduction of PCSK9 secretion vs scaffold 174” value (human PCSK9 locus [1]) was “more effective reduction of PCSK9 secretion”, the “active fraction of CasX RNPs, higher than scaffold 174” value (6.7/6.8 target dsDNA [2]) was 25-30% and the “cleavage rate vs scaffold 174” value (6.7/6.8 target dsDNA [3]; spacer 6.7, v1) was “marginally faster cleavage”. The “cleavage rate vs scaffold 174” value (6.7/6.8 target dsDNA [3]; spacer 6.8, v1) was “nearly twice as quickly”, the “editing level at the B2M locus vs scaffold 174” value (human B2M locus) was “nearly two-fold higher” and the “increase in editing rate at the PCSK9 locus over scaffold 174” value (human PCSK9 locus [4]) was about 10 percentage point. The “editing at the B2M locus vs scaffold 235” value (B2M locus) was “appeared to improve editing at the B2M locus”.
